We go through 28 sequences from the DeepSol protein solubility set.

This series in a line: soluble on expression in E. coli; label from the status in PepcDB or PDB records.
In the case of “MDRGVAQVASAPALGAGGRWFKSSRPDHFFIEVDKALLKEVKDMPIYRYVCEECGYETTVMHGINESPEVICEECGAKMKRTIGRVGIIFKGSGFYITDSRKSEKKKEAASASSEKKD”, the “soluble on expression in E. coli” value is “not soluble”.

“MDRNLVQKGDAPPSKRSDPGTEFCVDIVVKGRKTEVPERFRKHVAEKLKLEKIQKLDGKVISLDVEVSKEPNPRQADRCDRVEITLRSRGPVIRAEAAASDPYAALDLAAEKLGARLRKQHDKRFSRRGARRISAAEVADHVPGAATLNGNGDVVPTEKQDGVPTKKIGSLEVQGDGPLVVREKTHVAAPMSLDQALYEMELVGHDFYLFVDSETKEPSVVYRRHAYDYGVIHLTTDTMVTQAHAPDAGDALGGLEHHHHHH”: the “soluble on expression in E. coli” value was “not soluble”. Then “MDRQGFVPAAYVKKLDSGTGKELVLALYDYQEKSPREVTMKKGDILTLLNSTNKDWWKVEVN”, with “soluble”; and “MDRSFCDAGCGVGSLSLPLAQRGAQAVYASDISAKMVEEARERASQIPNLNNIQLEVSDLASLSGRYDTVICLDVLIHYPESDAAAMLSHLCSLAEQRVLVSFAPKSPVLNVLKRIGQFFPGASKTTRAYQHSETAIAAALAANGFQVQRRAFNKAPFYFSLLLEAVRTALEHHHHHH”, with “soluble”.

For “MDSFWFVQQWPPAVCSFQKSGSCPGSGLRTFTIHGLWPQQSGTSLTNCPGSPFDITKISHLQSQLNTLWPSVLRANNQQFWSHEWTKHGTCSESTFNQAAYFKLAVDMRNNYDIIGALRPHAAGPNGRTKSRQAIKGFLKAKFGKFPGLRCRTDPQTKVSYLVEVVACFAQDGSTLIDCTRDTCGANFIF”, the “soluble on expression in E. coli” value was “soluble”. Turning to “MDSIGGVLNTMKKNLLITLALIIMSHHSAYAQDELTYIPIPKANQIADLNDLDKDGVINARDLCAGTPIGAEVDNDGCETYLHKEEQYQLK”, the “soluble on expression in E. coli” value is reported as “not soluble”. Turning to “MDTIQKRPRTRLSPEKRKEQLLDIAIEVFSQRGIGRGGHADIAEIAQVSVATVFNYFPTREDLVDDVLNKVENEFHQFINNSISLDLDVRSNLNTLLLNIIDSVQTGNKWIKVWFEWSTSTRDEVWPLFLSTHSNTNQVIKTMFEEGIERNEVCNDHTPENLTKMLHGICYSVFIQANRNSSSEEMEETANCFLNMLCIYK”, the “soluble on expression in E. coli” value was “not soluble”. With “MDTKNLTAVQLMELDSCTRCGECVKWCPTYAASGQKPGLAPRDKILRWRQYMNKSYGLKAKLFGPTEIPQSELEEFKDDVHGCTTCGICATVCESGINTVELWESLRTNLVKKGIGPFGKQGMFPKLEHHHHHH”, the “soluble on expression in E. coli” value is listed as “not soluble”. Then “MDTPSLTPWLSIVGISEEGWLALTPIAQQCILQADILVGSDRHFDLLPSLPGAEQWRWGSPFSATITQILERRGQSICILASGDPMCYGVGSLLAQRLPLTELQILPAPSAFSLACSRLGWALPEVETLSLCGRDPALLNALLYPGAKILALSADRSTPATIAEQLCQQGWGSSRLTVLEHLGGPKERKISEIAEHWSQPTIASLNTVAIECHARDRDLIVPPRLTGLPDAAYHHDGQLTKREVRAITLAALAPLPGQLLWDVGAGCGSIGIEWMRSDRRCRAIAIEQHPQRLQIITQNAIALGVPNLQVVAGSAPATLSGLPQPDAIFIGGGVTAPGVLDQCWQALPMGGRLVVNAVTLESEQVVLAGQQRWGGDLIRVAVQRAEPIGRFLGWKSLAPITQWTVKKTALEHHHHHH”, with “not soluble”; and “MDTQQIDVMVADASHEVYVDTILETIRNAAKVRGTGIAERTHEYVATKMKEGKAIIALCGDVFAGFTYIESWGNKQYVATSGLIVHPDFRGLGLAKRIKQASFQLARLRWPRAKIFSLTSGAAVMKMNTELGYVPVT”, with “soluble”. Turning to “MDTQTLNSDLRVFMHHIYEFEKGVRSMVLATLANDDIPYAEERLRSRQIPYFAQPTPNTERTNLFFGCKECMEAIRLFVSGRSLNSLTPEEDFIIGAMLGYDICRQCERYCRRKSNS”, the “soluble on expression in E. coli” value is given as “soluble”. As for “MDTSQKYRSNNEVDSPQIEHDKQALPSIESLYWGLQQNQQIQGIEQTGEPNGDNQPPQLVIDQLSYDQQQQQPKQNCFDTHGNMDDNRGLYNLPQGAENGSGHLVATESHQLHPPNYNLQQAQTPPPTRHSQYVDAAPQAYGSGQLVPENQRQPESAPDRPYQIMNVGCNPQSAQQHAQMEIPTMSHQLIGTCHNWQSGSQQGTSQNRKDFAGMQSCYGKDQHHQSALNGYHQLQAQPNLYPQHVSNQRPQWAMDQLGYYQQHQQQGPTWSDQNGNEGDNGGLYNHPQGAENGSGHLAATESHQLLPPSNNLQQVQIPAPTRHSQYVGASHLAYGSGQLVPENQLQPEPAPDRSYRKMNVGCNSQYAQQHAQMDQVIGTCHNCQSDSQQGTSQNRDNLAGMKGCCVKDQYHEPAPSGYHPPQAQSNCYPNHPPNPNMNAGDQDRQHVQLNFYTDPGFQQNSHVPYEMQQGFQTTGMQGSYQQNNQPELLFDSNNGNQTVNNAPNGNYQEPVYPLLQEGPTWNNNDNHDYFPSDDSMSQTSQEPVSVESIRKKTKRAKNKLEARKSLQKKKDDLKASRKSWEEVKINHNNILSSNNSNEENIKTAFDQVLYPCFTNQQVIGTFNIIRSYDEVQEGFAQFENDKQNIISKVDYLMKTDRNLKKLRMAKEVSEKQWEQFETDKKNRKEDDKKNKINGGNKLNGKTKIVSSITIATRCSRSKDKKETDAFKHDAKVLKFESSKQTQIKLCLKKYCDKFYPGVRMLLQHNWKFLRDNALHSGQSVQLEKLIECLKTFHLTEHAEKEHNLENS”, the entry is “not soluble”; as for “MDVGKRLKEVREMYGLSQRELAKRVGLTNSTISMIERDAVSPSISSLKKILEGVSLTVTEFFTLEIPTESQVVFKKDTLVDVGSDGVELHLVGTPQPDSKLAFLIERYQPGSSTGKDMITHIGEEAGTVIEGSIEITVAGRSFKLTKGDSYKFSTSLPHKFKNTSKKVCKIISAHTPPSF”, “not soluble”; as for “MDVIKISPRGYCYGVVDAMVIAKNASLDKSLPRPIYILGMIVHNKHVTDAFEEEGILTLDGSNRLDILKQVDKGTVIFTAHGVSPEVRRIAEEKGLVAIDATCPDVTKTHNLILEMKEKGYHVIYIGKKGHPEPEGAVGVAPEIVHLVETEEDVKNLDIQSEKLIVTNQTTMSQWDVHDIMELVKEKYPHVEYHQEICLATQVRQEAVSEQAKKADLTIVVGDPKSNNSNRLAQVSEEIAGTKAYRIGDLSELKLEWLKGVNTVAVTAGASTPTPITKEVIRFLEQFDHEDPSTWTTEHNIPLKKILPKVKAKN”, “not soluble”.

Regarding “MDWFSWLSRTNLEASLIYEYGLSFSNNELEYEDIAYFNHEFLQSMGISIAKHRLEILKLARRDRKPSPLTARSIFRVLIAIKKTGKCFSEHVRAWIRREESSRALVVVSRSTSSSGNGRWKSARKKRLVMPSNGNGVKEERLLLTNGTPCRLDSFSNPKVSSGYEDDDNHWGNKDVEEKIKWDSMFQNLKPT”, the “soluble on expression in E. coli” value was “soluble”. Then “MDWRHEAVCRDEDPELFFPVGNSGPALAQVAAAKVVCNRCPVTSQCLAWALETGQDAGVWGGMSEDERRALKRRKNRGRGRARATA”, with “not soluble”. Then “MDWRHKAVCRDEDPELFFPVGNSGPALAQIADAKLVCNRCPVTTECLSWALNTGQDSGVWGGMSEDERRALKRRNARTKARTGV”, with “not soluble”; and “MDYHIQEEKILEVLKENVYGLRGSIAFSGGLDSSLLYVISDRNLVPYTVGYSFSHDVNRAKFVLSLLNGSGKYVTLDEINIENYVKYLKSEYPDINKVEISFELVLEILLENVDSDLLVTGQGADELFFGYKRSVNEMDNSLQMERLLKRTIPREKDMAKRQGKELVTPFLDDRILKLASEISPAYHCLYGGKKALREIAKIAGLPEEVYGYRKKAAQYGSGIDKALKSVSYFGLF”, with “not soluble”. Turning to “MDYQERLKNLPPEVMTAFSESFIFLISNDKVQHFPARDLTQAEMIQRVKEKLGEAVTWSLWQGFVIAVNSEETCVAVLPKYYQLDGFENE”, the “soluble on expression in E. coli” value is “not soluble”. Regarding “MEAIKDKERKERRDKKLAIANLAAKQKREKKKQQKNGAELAARARKAKAEKAKTSEPPAQGVVTRAAAQKAREAAQAANHQ”, the “soluble on expression in E. coli” value is listed as “not soluble”.

Consider “MEALDLLLNRRSIAKLDAPAPQNEALDNILRAGLRAPDHGALTPWRFVVAQGEGLAKLAAILEQAEIANGSDEAVISKAKNAPFRAPMVITVIAKVTHSEKIPAFEQHLSAGCAVQAMQMAAIAQGFQGIWRSGSWMFHPVVRRAFNVQGEDHIVGFLYLGTPGTTAAKVPERELSKYVEYL”, for which the “soluble on expression in E. coli” value is listed as “not soluble”. “MEANILSTHKSKILVFKGWSERQKSVVFIPIEAVLEGHNIEVQFFEKPNEPVTFQVKDKNGNIVFQDMTTPDNLEIYQIDVSGFKTGQYELLYIEKDVTLIGEFEIE”: the “soluble on expression in E. coli” value was “not soluble”. “MEASKYVGQGFQPPAEKDAVEFAKKHKDKIAKRGEQFFMDNFGLKVKATNVVGSGDGVEVFVHCDDHDIVFNASIPFDKSIIDSDSSLRSEDKGDDMSTLVGTVLSGFEYRAQKEKYDNLYKFFKENEKKYQYTGFTKEAINKTQNSGYENEYFYIVANIPTLQEYRKYYEPLIKKNNLNFKKGMKQARKGVGYKAAIEVHTTLFSRSSNFSKDKKLDDVIDLSESTKKLHLNFENTKIFLQLAKSTISTNRVNYSDNESIRIEVELEHHHHHH”: the “soluble on expression in E. coli” value is “not soluble”. Then “MEATQQAERKSMNKSQAFANASHDIRGALAGMKGLIDICRDGVKPGSDVDTTLNQVNVCAKDLVALLNSVLDMSKIESGKMQLVEEDFNLSKLLEDVIDFYHPVAMKKGVDVVLDPHDGSVFKFSNVRGDSGRLKQILNNLVSNAVKFTVDGHIAVRAWAQRPGSNSSVVLASYPKGVSKFVKSMFCKNKEESSTYETEISNSIRNNANTMEFVFEVDDTGKGIPMEMRKSVFENYVQVRETAQGHQGTGLGLGIVQSLVRLMGGEIRITDKAMGEKGTCFQFNVLLTTLESPPVSDMK”, with “not soluble”; and “MEAVLYVSHGSRIAAARHEAARFVEQCRRAIDIPIQELCFVELAEPDIVTGVDRCVAQGATRVIVVPLLLLSAGHAKHDIPAALDIARRRHPSVDILCGAPFGVHEAMIDIMIDRISEQSAPLDGESMILLVGRGSSDPDTKRDMSAIAALLKEKTNVPHVDVCFLAAIRPTLDEGLERAHASAYRRVFVVPYLLFTGVLMKTIERRLQGFSVSDKQWHLCSYLGDHPRLVLLIQQQVLSLSSVKKGA”, with “soluble”; and “MEDEDVPVCWICNEELGNERFRACGCTGELENVHRSCLSTWLTISRNTACQICGVVYNTR”, with “soluble”. Then “MEDIGADSDDFFSLAEELPQNEDLLESEDDAPIIKLINAMLGEAIKEGASDIHIETFEKTLSIRFRVDGVLREVLAPSRKLSSLLVSRVKVMAKLDIAEKRVPQDGRISLRIGGRAVDVRVSTMPSSHGERVVMRLLDKNATRLDLHSLGMTAHNHDNFRRLIKRPHGIILVTGPTGSGKSTTLYAGLQELNSSERNILTVEDPIEFDIDGIGQTQVNPRVDMTFARGLRAILRQDPDVVMVGEIRDLETAQIAVQASLTGHLVMSTLHTNTAVGAVTRLRDMGIEPFLISSSLLGVLAQRLVRTLCPDCKEPYEADKEQRKLFDSKKKEPLILYRATGCPKCNHKGYRGRTGIHELLLVDDALQELIHSEAGEQAMEKHIRATTPSIRDDGLDKVRQGITSLEEVMRGSRSHHHHHH”, with “soluble”. Take “MEDSCVLRGVMINKDVTHPRMRRYIKNPRIVLLDSSLEYKKGESQTDIEITREEDFTRILQMEEEYIHQLCEDIIQLKPDVVITEKGISDLAQHYLMRANVTAIRRVRKTDNNRIARACGARIVSRPEELREDDVGTGAGLLEIKKIGDEYFTFITDCKDPKACTILLRGASHHHHHH”: the “soluble on expression in E. coli” value is “soluble”.
